Target: the molecule itself
Assay: SDS-PAGE of unboiled and boiled samples

B1: cholera toxin B-subunit (CTB) (natural protein)
chain: TPQNITDLCAEYHNTQIYTLNDKIFSYTESLAGKREMAIITFKNGAIFQVEVPGSQHIDSQKKAIERMKDTLRIAYLTEAKVEKLCVWNNKTPHAIAAISMAN
**Q.** B1 was tested. Which “stoichiometry N” value did it give?
**A.** The value was 5.
